Measurements published in patent US20240066100A1.
Values belong to the substance of their own block, whether it stands above or below them.

Legend:
[1] = biological target: human IL-18BP (amino acids 31-194), biotinylated (human) (UniProt O95998); assay: yeast display binding; conditions: ligand
Target sequence in this assay (O95998 other isoform, or with tags, fused parts or gaps): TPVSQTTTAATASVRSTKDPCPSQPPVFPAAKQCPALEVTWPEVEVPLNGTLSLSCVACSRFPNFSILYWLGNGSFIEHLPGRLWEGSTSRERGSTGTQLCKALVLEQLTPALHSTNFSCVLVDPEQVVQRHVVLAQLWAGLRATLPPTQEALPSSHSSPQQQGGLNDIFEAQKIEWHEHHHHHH

[2] = biological target: human IL-18BP (amino acids 31-194), biotinylated (human) (UniProt O95998); assay: SPR
[3] = biological target: human IL-18BP (amino acids 31-194), biotinylated (human) (UniProt O95998); assay: SPR, representative sensorgram, immobilized biotinylated hIL-18BP
Target sequence in this assay (O95998 other isoform, or with tags, fused parts or gaps limits assumed, form in doubt): as the sequence (O95998 other isoform, or with tags, fused parts or gaps) above

[4] = biological target: human IL-18BP (amino acids 31-194), biotinylated (human) (UniProt O95998); assay: SPR, Biacore T100; hIL-18BP as surface ligand; Exp 1
Target sequence in this assay (O95998 other isoform, or with tags, fused parts or gaps limits assumed, form in doubt): as the sequence (O95998 other isoform, or with tags, fused parts or gaps) above

[5] = biological target: human IL-18BP (amino acids 31-194), biotinylated (human) (UniProt O95998); assay: on-yeast binding isotherm, flow cytometry
Target sequence in this assay (O95998 other isoform, or with tags, fused parts or gaps limits assumed, form in doubt): as the sequence (O95998 other isoform, or with tags, fused parts or gaps) above

[6] = biological target: human IL-18BP (amino acids 31-194), biotinylated (human) (UniProt O95998); assay: SPR, apparent KD
Target sequence in this assay (O95998 other isoform, or with tags, fused parts or gaps limits assumed, form in doubt): as the sequence (O95998 other isoform, or with tags, fused parts or gaps) above

[7] = biological target: human IL-18BP (amino acids 31-194), biotinylated (human) (UniProt O95998); assay: SPR; KD IL-18BP / KD IL-18Rα normalized to WT IL-18
Target sequence in this assay (O95998 other isoform, or with tags, fused parts or gaps limits assumed, form in doubt): as the sequence (O95998 other isoform, or with tags, fused parts or gaps) above

[8] = biological target: human IL-18BP (amino acids 31-194), biotinylated (human) (UniProt O95998); assay: SPR, Biacore T100; hIL-18BP as surface ligand, IL-18 as analyte
Target sequence in this assay (O95998 other isoform, or with tags, fused parts or gaps limits assumed, form in doubt): as the sequence (O95998 other isoform, or with tags, fused parts or gaps) above

[9] = biological target: human IL-18BP (amino acids 31-194), biotinylated (human) (UniProt O95998); assay: SPR, Biacore T100; hIL-18BP as surface ligand; Exp 2
[10] = biological target: human IL-18BP (amino acids 31-194), biotinylated (human) (UniProt O95998); assay: SPR, biotinylated receptor on streptavidin capture chip, IL-18 as free analyte
[11] = biological target: human IL-18BP (amino acids 31-194), biotinylated (human) (UniProt O95998); assay: SPR, Biacore T100
[12] = biological target: human IL-18BP (amino acids 31-194), biotinylated (human) (UniProt O95998); assay: SPR, Biacore T100; biotinylated receptor on chip, IL-18 as analyte

Sequence of wild-type human Interleukin-18 (mature form) (Q14116 37-193): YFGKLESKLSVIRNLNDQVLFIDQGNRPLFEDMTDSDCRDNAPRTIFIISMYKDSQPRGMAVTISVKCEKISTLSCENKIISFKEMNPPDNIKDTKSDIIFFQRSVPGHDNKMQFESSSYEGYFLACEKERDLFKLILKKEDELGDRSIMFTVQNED

Substance: human decoy-to-the-decoy (D2D) IL-18 consensus variant SEQ ID NO: 123 (from UniProt Q14116 37-193)
Kd [1]: 5.9 nM

Substance: human decoy-to-the-decoy (D2D) IL-18 consensus variant SEQ ID NO: 124 (from UniProt Q14116 37-193)
Kd [1]: 7.9 nM

Substance: human decoy-to-the-decoy (D2D) IL-18 consensus variant SEQ ID NO: 125 (from UniProt Q14116 37-193)
Kd [1]: 8.9 nM

Substance: human decoy-to-the-decoy (D2D) IL-18 variant SEQ ID NO: 94 (from UniProt Q14116 38-193)
Kd [1]: 6.4 nM

Substance: human decoy-to-the-decoy (D2D) IL-18 variant SEQ ID NO: 98 (from UniProt Q14116 38-193)
Kd [1]: 5.4 nM

Substance: human decoy-to-the-decoy (D2D) IL-18 variant SEQ ID NO: 99 (from UniProt Q14116 38-193)
Kd [1]: 4.8 nM

Substance: human decoy-to-the-decoy (D2D) IL-18 variant SEQ ID NO: 101 (from UniProt Q14116 37-193)
Kd [1]: 8.8 nM

Substance: human decoy-to-the-decoy (D2D) IL-18 variant SEQ ID NO: 120 (from UniProt Q14116 37-193)
Kd [1]: 4.2 nM

Substance: wild-type human Interleukin-18 (mature form) (from UniProt Q14116 37-193)
Kd [1]: 2.1 nM
Kd ([2]; ligand): 0.6 nM

Kd [3]: 0.002 nM
Kd [4]: 0.000694 nM
Dissociation Constant Ratio normalized to WT IL-18 [5]: 1
KD ratio IL-18BP/IL-18Rα [5]: 0.295
Kd [5]: 7.08 nM
Kd [6]: < 0.1 nM
IL-18 BP:Rα Dissociation Constant Ratio [7]: 1
koff [8]: 2.23e-07 s⁻¹
kon [8]: 518000 M⁻¹ s⁻¹
Kd [9]: 0.00043 nM
Kd [10]: < 1 nM
Dissociation Constant Ratio normalized to WT IL-18 [11]: 1
KD ratio IL-18BP/IL-18Rα [11]: 0.000648
Kd [2]: 0.002 nM
Kd [12]: 0.0019 nM
Substance: wild-type human Interleukin-18 (mature form) (from UniProt Q14116 37-193) (ligand)
